# Measurements: PMC9092470, “Understanding p300-transcription factor interactions using sequence variation and hybridization†” (RSC Chemical Biology, 2022)
# No end group written: not given here.
# How the values were obtained:
# [1] = molecular target: T1, p300 (CH1 domain, residues 330–420) (Homo sapiens, UniProt Q09472); assay: ITC of chemically synthesized HIF-1α, CITED2 and CITIF peptides binding to p300; details: pH 7.5
# T1 construct: GST (N, cleaved yes); made in house; host or cells: E. coli BL21 pLysS (pGEX-4T1-p300)
# Experimental: Raw ITC (upper) data and fitted thermogram (lower) (40 mM sodium phosphate, pH 7.5 100 mM NaCl, 1 mM DTT buffer using 5 μM protein in the cell and 60 μM ligand in the syringe at 35 °C) error bars represent the estimated integration errors; (b) Thermodynamic signatures for each interaction.
# Figure S8 (a) Sequences of the truncated CITED2 peptides and isothermal titration […]
# µM peptide in the syringe. All measurements were carried out 40 mM sodium phosphate, pH 7.5 100 mM NaCl, 1 mM DTT buffer at 35°C. Error bars represent the estimated integration […]
# Table S2 Thermodynamic parameters for shortened CITED2 sequences. 68% confidence intervals for the fitting are shown in brackets. Data fitted to a single binding site model, fixed 1:1 stoichiometry with incompetent protein fraction as an adjustable parameter. […]
# (§1) Isothermal titration calorimetry
# (§2) Prior to ITC measurement p300 CH1 was dialysed or run on S75 column in the buffer used for titration, and the same buffer was used to dissolve the pure peptides. Experiments with […]
# (§3) MicroCal iTC200 instrument with 10 µM protein in the cell and 100 µM ligand in the syringe at 37°C, using 2 µl injections and 120 or 180 s spacing between injections. Experiments with the […]
# (§4) instrument using 3-5 µM protein in the cell and 40-60 µM ligand in the syringe at 35°C, using 5 µl injections and 180 s spacing between injections, for 40 injections. Titrations were performed in 40 mM Na-phosphate, pH 7.5 100 mM NaCl, 1 mM DTT buffer except for GFP-HIF-1α and variants for which 25 mM Tris-HCl, 150 mM NaCl, 1mM DTT, pH 7.4 buffer was used. Data were analysed using NITPIC3 and fitted using SEDPHAT4 to a single binding site model (fixed 1:1 stoichiometry), with baseline and incompetent protein fraction as adjustable parameters. 68 % confidence intervals for the fitted values were determined using the automatic confidence interval search implemented in SEDPHAT. Figures were prepared using […]
# [2] = molecular target: T1, p300 (CH1 domain, residues 330–420); assay: ITC of expressed HIF-1α, CITED2 and CITIF peptides binding to p300; details: pH 7.5
# Experimental: We hypothesized that it would be possible to enhance the affinity of HIF-1α for p300 by hybridising key regions of both CITED2 and HIF-1α (see later). We first measured the affinity of the parent peptides. A particular difficulty in comparing these peptide sequences is the different length used in different studies.[28,33,35,36] […]
# data and fitted thermogram (lower) (40 mM sodium phosphate, pH 7.5 100 mM NaCl, 1 mM DTT buffer using 5 µM protein in the cell and 60 µM ligand in the syringe at 35°C); (b) Thermodynamic signatures for each interaction. […]
# as §1, §2, §3, §4
# [3] = molecular target: GST-p300 (p300 CH1 domain, residues 330–420) (Homo sapiens, UniProt Q09472); assay: Fluorescence anisotropy direct titration of GFP-HIF-1α776–826 variants with GST-p300; format: binding; details: 50 nM GFP-HIF-1α776–826 variant, GST-p300 serial dilution, 25 mM Tris–HCl, 150 mM NaCl, 1 mM DTT, pH 7.4, 27 °C, 1:1 model, ± standard error of fitted value, technical triplicates
# Text: To experimentally compare the predictions, we carried out an in vitro biophysical study of several HIF-1α sequence variants. We assessed predicted hot residues and their interactions with p300 using the NMR structure to visualize the structural basis behind the predictions (See ESI, ^† Fig. S2). These analyses helped refine a first series of alanine variants to prepare. […] HIF-1α776–826 sequence variants were recombinantly prepared based on the predictions to test their binding to the recombinantly prepared p300 (Fig. 2). Given the length of the peptide ([…]), this was considered advantageous as it obviates the need to chemically synthesise, label and purify multiple variants. As the C-TAD domain is unstructured in isolation it was recombinantly expressed as a fusion protein with GFP. The green-fluorescent protein (GFP) tag was used for fluorescence anisotropy (FA) experiments to determine the binding affinity of HIF-1α776–826 C-TAD variants to p300. As the CH1 domain of p300 is a small domain of 11 kDa it was recombinantly expressed as a fusion protein with GST to increase its size and thus the signal to noise in the FA experiments. We established an assay where the interaction between GFP-tagged wt HIF-1α776–826 and GST-tagged p300 was monitored by FA, using the fluorescence of GFP. GST dimerises with single digit nM Kd[61] (and in our hands exists as a dimer in size exclusion chromatography analyses, see ESI, ^† Fig. S15 for protein characterization data), thus two molecules of GFP-HIF-1α could bind to the GST-p300 dimer (Fig. 2a). We make the assumption that each p300 binding site behaves independently and analyse the binding isotherm using a 1 : 1 model.
# (§5) Fig. 2 Biophysical analyses on the effects of HIF-1α sequence variant p300 binding affinity. (a) schematic depicting the equilibrium for interaction of GFP-HIF-1α776–826 variants and GST-p300 as studied by fluorescence anisotropy; (b) representative fluorescence anisotropy titration data for sAV and mAV GFP-HIF-1α776–826 peptides interacting with GST-p300 (25 mM Tris–HCl, 150 mM NaCl, 1 mM DTT, pH 7.4), error bars represent standard deviation of technical triplicates; (c) raw ITC data (upper) and fitted thermogram (lower) for the interaction of GFP-HIF-1α776–826 peptides with p300 (37 °C in 25 mM Tris–HCl, 150 mM NaCl, 1 mM DTT, pH 7.4) using 10 μM p300 in the cell and 100 μM GFP-HIF-1α776–826 variant in the syringe; error bars represent estimated integration errors (d) thermodynamic signatures for each interaction. […]
# 7.4 buffer or dialysed into 25 mM Tris, 150 mM NaCl, 1 mM DTT pH 7.4 buffer.
# GSTp300 protein was serially diluted in buffer (25 mM Tris-HCl, 150 mM NaCl, 1mM DTT, pH 7.4) and GFP-HIF-1α (50nM final concentration) was added, the plates were read after 0 min, 60 min, 4 h and 24 h, and incubated at room temperature in between. Each experiment was run in triplicate and the fluorescence anisotropy measured using an EnVision 2103 MultiLabel plate reader (Perkin Elmer) with excitation at 480 nm and emission at 535 nm (30 nm bandwidths). The recorded temperature for all measurements was 27°C ± 1°C. In parallel, a control experiment was performed in which no GFP-HIF was added and the volume made up with additional buffer, this blank was deducted from the raw data for each of the three repeats.
# The intensity was calculated for each point using eqn (1) and used to calculated anisotropy […]
# using eqn (2). From a plot of anisotropy against GST-p300 concentration the minimum and maximum anisotropies were obtained using a logistic sigmoidal fit in OriginPro 8.6. This allowed the conversion to fraction bound (eqn (3)). The data were then fitted using eqn (4) in OriginPro 8.6 to determine the dissociation constant, Kd. […]
# 5 µl injections and 180 s spacing between injections, for 40 injections. Titrations were performed in 40 mM Na-phosphate, pH 7.5 100 mM NaCl, 1 mM DTT buffer except for GFP- […]
# [4] = molecular target: T1, p300 (CH1 domain, residues 330–420); assay: ITC of GFP-HIF-1α776–826 variants binding to p300; details: 37 °C, 25 mM Tris–HCl, 150 mM NaCl, 1 mM DTT, pH 7.4, 10 μM p300 in cell, 100 μM variant in syringe; for ΔH: 68% confidence interval in brackets
# Experimental: as §5
# Error bars represent standard deviation of technical triplicates.
# Figure S5 Heat of dilution of (a) GFP titrated to buffer, (b) GFP titrated to p300 and (c) Raw ITC (upper) data and fitted thermogram (lower) for the interaction of GFP-HIF-1α776-826 D823A variant (37 °C in 25 mM Tris-HCl, 150 mM NaCl, 1mM DTT, pH 7.4) using 10 µM p300 in the cell and 100 µM HIF-1α variant in the syringe. ITC experiments were carried out using a Microcal ITC200i instrument (Malvern). All proteins were dialysed against the same buffer prior to experiment, buffer or 10 µM p300 was present in the cell and titrated with 100 µM GFP-HIF-1α or GFP loaded into the syringe using 16 x 2 μL injections with 120 s spacing between the injections. Heats of GFP or GFP-HIF-1α dilution were subtracted from the measurement raw data. Error bars represent the estimated integration errors. […]
# as §1, §2, §3, §4
# [5] = molecular target: T2, p300 CH1 domain (residues 330–420) (UniProt Q09472 330-420); assay: ITC; peptide in the syringe, p300 in the cell (Fig. 4: 5 μM protein, 60 μM ligand); 40 mM sodium phosphate, pH 7.5, 100 mM NaCl, 1 mM DTT, 35 °C; single-site model, fixed 1:1 stoichiometry; details: both partners purified
# T2 construct: p300 CH1 domain, residues 330–420; The cleavage of GST is said for the anisotropy control; also called p300 with the GST tag cleaved; source: recombinantly expressed as a fusion protein with GST, GST tag cleaved
# [6] = molecular target: T2, p300 CH1 domain (residues 330–420); assay: ITC; 10 μM p300 in the cell, 100 μM GFP-HIF-1α 776–826 variant in the syringe; 37 °C; 25 mM Tris–HCl, 150 mM NaCl, 1 mM DTT, pH 7.4; fixed 1:1 stoichiometry; details: both partners purified
# [7] = molecular target: GST-tagged p300 CH1 domain (residues 330–420) (UniProt Q09472); assay: fluorescence polarisation; fluorescence anisotropy by the fluorescence of GFP; GFP-HIF-1α 776–826 variants with GST-p300; 25 mM Tris–HCl, 150 mM NaCl, 1 mM DTT, pH 7.4; 1:1 model, each p300 site of the GST dimer taken as independent
# T2 sequence (Q09472 330-420): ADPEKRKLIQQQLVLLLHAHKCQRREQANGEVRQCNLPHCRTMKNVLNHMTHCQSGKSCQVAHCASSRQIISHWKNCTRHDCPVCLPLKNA
# T1 sequence (Q09472 330-420): as above
# Chain of GST-p300 (p300 CH1 domain, residues 330–420) (Q09472 330-420): as above
molecule,measurement,setting,value
Ac-DEEVLMSLVIEMGLDRIKELPELWLGQNEFDFMTDF-NH2 [CITED224–259],"ΔH, synthetic peptides",[1],-51.9 kJ/mol
same,"ΔS, synthetic peptides",[1],−3.6 cal mol^−1 K^−1
same,"ΔH, expressed peptides",[2],-51.9 kJ/mol
same,"ΔS, expressed peptides",[2],−6.2 cal mol^−1 K^−1
D823A: GFP-HIF-1α776–826 C-TAD single alanine variant D823A ({GFP}-SDLACRLLGQSMDESGLPQLTSYDCEVNAPIQGSRNLLQGEELLRALAQVN; cysteine pairing not given here),Kd,[3],0.192 ± 0.017 µM
same,ΔS,[4],−12.2 cal mol^−1 K^−1
same,ΔH,[4],-54.4 kJ/mol
Ac-NVIDTDFIDEEVLMSLVIEMGLDRIKELPELWLGQNEFDFMTDFVCKQQPSRVS-NH2 [CITED216–269],"ΔH, synthetic peptides",[1],-55.2 kJ/mol
same,"ΔS, synthetic peptides",[1],−10.0 cal mol^−1 K^−1
same,"ΔH, expressed peptides",[2],-55.6 kJ/mol
same,"ΔS, expressed peptides",[2],−7.5 cal mol^−1 K^−1
E801A: GFP-HIF-1α776–826 C-TAD single alanine variant E801A ({GFP}-SDLACRLLGQSMDESGLPQLTSYDCAVNAPIQGSRNLLQGEELLRALDQVN; cysteine pairing not given here),Kd,[3],0.227 ± 0.078 µM
same,ΔS,[4],−9.5 cal mol^−1 K^−1
same,ΔH,[4],-51 kJ/mol
HIF-1α L792A: GFP-HIF-1α776–826 C-TAD single alanine variant L792A ({GFP}-SDLACRLLGQSMDESGAPQLTSYDCEVNAPIQGSRNLLQGEELLRALDQVN; cysteine pairing not given here),ΔS,[4],−14.5 ^a cal mol^−1 K^−1
same,ΔH,[4],"−13.6 ^a (−13.9, −13.2) kcal mol^−1"
"Ac-SMDESGLPQLTSYDCEVNAPIQGSRNLLQGEELLRALDQVN-NH2 (peptide, UniProt Q16665 786-826, looked up, source: synthetic peptide (chemical synthesis, see ESI)) [HIF-1α 786–826, chemically synthesized peptide]",dH,[5],-108 kJ/mol
"GFP-tagged wt HIF-1α 776–826 C-TAD (domain or fragment, UniProt Q16665 776-826, looked up, source: recombinantly expressed as a fusion protein with GFP) SDLACRLLGQSMDESGLPQLTSYDCEVNAPIQGSRNLLQGEELLRALDQVN",Kd,[6],0.086 µM
same,dH,[6],-72.4 kJ/mol
same,Kd,[7],0.055 µM
"GFP-HIF-1α 776–826 D823A (domain or fragment, UniProt Q16665 776-826, looked up, As m3 with the stated change; also called HIF-1α D823A; source: recombinantly expressed as a fusion protein with GFP) SDLACRLLGQSMDESGLPQLTSYDCEVNAPIQGSRNLLQGEELLRALAQVN",Kd,[6],0.369 µM
same,dH,[6],-54.4 kJ/mol
same,Kd,[7],0.192 µM
"GFP-HIF-1α 776–826 E801A (domain or fragment, UniProt Q16665 776-826, looked up, As m3 with the stated change; also called HIF-1α E801A; source: recombinantly expressed as a fusion protein with GFP) SDLACRLLGQSMDESGLPQLTSYDCAVNAPIQGSRNLLQGEELLRALDQVN",Kd,[6],0.359 µM
same,dH,[6],-51 kJ/mol
same,Kd,[7],0.227 µM
"GFP-HIF-1α 776–826 L792A (domain or fragment, UniProt Q16665 776-826, looked up, As m3 with the stated change; measured by ITC only; also called HIF-1α L792A; source: recombinantly expressed as a fusion protein with GFP) SDLACRLLGQSMDESGAPQLTSYDCEVNAPIQGSRNLLQGEELLRALDQVN",Kd,[6],0.386 µM
same,dH,[6],-56.9 kJ/mol
"CITIF, HIF-1α-CITED2 hybrid sequence, chemically synthesized peptide (peptide) Ac-DEEVLMSLVIEMGLDRIKELPQLTSYDCEVNAPIQGSRNLLQGEELLRALDQVN-NH2",dH,[5],-94.1 kJ/mol
"HIF-1α 776–826, chemically synthesized peptide (peptide, UniProt Q16665 776-826, looked up, cysteine pairing not given here, source: synthetic peptide (chemical synthesis, see ESI)) peptide: Ac-SDLACRLLGQSMDESGLPQLTSYDCEVNAPIQGSRNLLQGEELLRALDQVN-NH2",Kd,[5],0.0522 µM
same,dH,[5],-95.8 kJ/mol
